Experimental findings from paper PMC11889175, “Molecular principles of redox-coupled sodium pumping of the ancient Rnf machinery” (Nature Communications, 2025) are described below.

Like-named read-outs stand apart in the source and are kept apart here.

Sequences and labels used below:
T1: RnfC subunit of the Rnf complex from Acetobacterium woodii (Acetobacterium woodii, UniProt H6LC32 1-443)
T1 construct: rnf genes amplified from genomic DNA
T1 sequence: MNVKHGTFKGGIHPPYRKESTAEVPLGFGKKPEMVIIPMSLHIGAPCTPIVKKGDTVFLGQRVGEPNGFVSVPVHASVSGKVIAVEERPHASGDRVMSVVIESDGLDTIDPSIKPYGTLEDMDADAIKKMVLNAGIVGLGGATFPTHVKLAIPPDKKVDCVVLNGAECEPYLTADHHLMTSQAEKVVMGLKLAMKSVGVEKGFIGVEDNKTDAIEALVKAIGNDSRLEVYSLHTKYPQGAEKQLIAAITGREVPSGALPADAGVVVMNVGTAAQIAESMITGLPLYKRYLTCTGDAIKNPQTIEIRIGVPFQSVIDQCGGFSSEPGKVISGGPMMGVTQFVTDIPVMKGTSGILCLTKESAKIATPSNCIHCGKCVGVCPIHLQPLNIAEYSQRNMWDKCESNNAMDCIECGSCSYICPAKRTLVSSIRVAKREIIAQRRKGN

B1: RnfG subunit of the Rnf complex from Acetobacterium woodii (natural protein)
chain: METKEKVQIDWKVVFKLGLILFVISAVAACALALTNYVTAGTIEEMNVQTNTVARQEVLPKAADFEAVPAKDVEKIASEIGMEKPEELLEVYIGKSNGEVVGYTVKTGPTSGYAGEVQVLTGISADGVITGITIIKSNETPGLGAKASGVWNDQFTGKSAKEELVVVKGTTKEGSNEIQAITGSTITSKAVTSGVNMSIQVYQNLSK
modifications: FMN covalently linked to T185
notes: RnfG, membrane-anchored periplasmic flavoprotein subunit of the Rnf complex, Acetobacterium woodii; rnf genes amplified from genomic DNA; The complex was captured on Ni-NTA by this tag; no cleavage step is described; not shown: His-Tag, C-terminal, kept
B2: RnfE subunit of the Rnf complex from Acetobacterium woodii (natural protein)
chain: MNFMKNLTRGIIRENPTFVLVLGMCPTLAVTTSAINGMGMGLATMLVLIGSNVAISALRKVIPDNIRIPAFVVVIASFVTIVGMLMKAYVPALDAALGIFIPLIVVNCIILARAEAFAFSNGIADSFADAVGMGLGFTLALTILGSIREILGAGSIFGFSLFGAAYEPVLLMILPPGAFLTLGLLIGLINWKTKKA
notes: RnfE, integral membrane subunit of the Rnf complex, homologous to RnfA (29% identity), Acetobacterium woodii; rnf genes amplified from genomic DNA
B3: RnfD subunit of the Rnf complex from Acetobacterium woodii (natural protein)
chain: MNELNLTVSSSPHIRAKHSTASIMQNVIIALLPALAVAGYVFGLWALALVAICVISSVATEAVIQKLLKKPITVNDWSAVVTGVLLAFNLPINAPWWIGVVGSVFAIAIVKQCFGGLGQNFINPALAARAFLLASWPGHMTSTAYIPLTDTVTTATPLALLKAGETGSMPSTLDLFTGLNGVYGCIGEISALALLIGGLYLIYKGIISWRIPTIYLLTIAIFALLVGQDPIVHMVSGGVMLGAFFMATDYASSPVTAKGQIIYAIGCGLITMIIRLYGGYPEGCSYSILLMNVATPLIERFTKERIYGVTKIKKEAKA
modifications: FMN covalently linked to T156
notes: RnfD, integral membrane subunit of the Rnf complex with ten transmembrane helices (riboflavin and covalent FMN), Acetobacterium woodii; rnf genes amplified from genomic DNA
B4: RnfB subunit of the Rnf complex from Acetobacterium woodii (natural protein)
chain: MLNAILVPVGILGVFGLIFGIGLAIAAKVFEVYEDPRVPLVRAALPGANCGGCGLPGCDALAANIVGGSAAIDACPVGGASCAAAVAEIMGMEAGSAVKKVATVICQGTCETAPNRAEYYGEMDCREAMIASGGSKGCRYGCLGYGTCKAVCPFDAIVIGEDGLPKVDPEKCTSCGKCVEACPKSIMTLVPEAQEVIVKCHNFDKGKIARLSCTTACIACGACVKACRFDAITVENNCAKIDYDKCRQCYECVDKCPMNCISGDVEYGKSTAYIIEENCIACGLCAKNCPVNAITGEIKKPPYVIDHDMCIGCGICFDKCRKSAIEMRPNKTK
notes: RnfB, membrane-anchored poly-ferredoxin subunit of the Rnf complex with eight [4Fe4S] clusters, Acetobacterium woodii; rnf genes amplified from genomic DNA; B8-domain is residues 30-100 of RnfB; also called poly-ferredoxin subunit RnfB
B5: RnfA subunit of the Rnf complex from Acetobacterium woodii (natural protein)
chain: MTLIFIMISAIFVNNFVLSRFLGICPFLGVSKQVETAVGMGVAVTFVMALASAITYVVQYAILDPLSLGYLQTIAFILIIAALVQLVEMIIKKSSPSLYQALGVYLPLITTNCAVLGVALINIQNEYNFIETIFNGVGAALGFTLAIVLFAGIRERLETSAVPKALEGFPIALLTAGLMAIAFLGFSGMKL
notes: RnfA, integral membrane subunit of the Na+-pumping Rnf complex, Acetobacterium woodii; rnf genes amplified from genomic DNA

Experiment [1] addresses Rnf complex (riboflavin and FMN^D sites in RnfD) (Acetobacterium woodii, UniProt H6LC31).
The target of experiment [2] is T2, Rnf complex (NADH / FMN site in RnfC) (Acetobacterium woodii, UniProt H6LC32). As to conditions: 30 µM ferredoxin pre-reduced by CO and CODH/ACS; 20 mM Tris/HCl, 20 mM NaCl, pH 7.2, 30 °C.
Experiment [3] concerns the target Rnf complex (FMN^G site in RnfG) (Acetobacterium woodii, UniProt H6LC30). Particulars: covalent, linked to T185 of RnfG; 5 µM FMN in purification buffer.
Experiment [4] has as its target T2, Rnf complex (NADH / FMN site in RnfC). As to the kind of experiment: cryo-EM structure, […] Å. It is filed as binding. Further details: whole six-subunit complex, His-tag at C-terminus of RnfG, plasmid-produced in A. woodii delta-rnf, DDM-solubilised, Ni-NTA and gel filtration, anoxic; with Na(+)-translocating ferredoxin:NAD(+) oxidoreductase complex subunit B; Na(+)-translocating ferredoxin:NAD(+) oxidoreductase complex subunit D; Na(+)-translocating ferredoxin:NAD(+) oxidoreductase complex subunit G; Na(+)-translocating ferredoxin:NAD(+) oxidoreductase complex subunit E; Na(+)-translocating ferredoxin:NAD(+) oxidoreductase complex subunit A. Particulars: 500 µM NADH, 10 min, anoxic; stacks on non-covalent FMN of RnfC.

The target of experiment [5] is B3. As to the kind of experiment: cryo-EM structure; Rnf complex purified in DDM, grids prepared under strictly anoxic conditions; NADH-reduced (3.3 Å), Fd-reduced (2.8 Å; state with B8 closer to the membrane 2.9 Å) and apo (3.0 Å) states, all with the same overall organisation. Particulars: both partners purified.
Experiment [6] deals with B4. Described as above. Particulars: both partners purified.
Experiment [7] addresses B1. The description is as above. As to conditions: both partners purified.
Experiment [8] has as its target T1, RnfC subunit of the Rnf complex from …. The description is as above. As to conditions: both partners purified.
The target in experiment [9] is B2. Described as above. Particulars: both partners purified.

For `Cc1cc2nc3c(=O)[nH]c(=O)nc-3n(C[C@H](O)[C@H](O)[C@H](O)CO)c2cc1C` [riboflavin], the “cryo-EM structure, 2.8-3.3 Å” value in [1] (pocket of RnfD connected to cytoplasmic side, hydrogen bonds to D249 and N123 of RnfD) is “RnfD binds the redox cofactor riboflavin (RBF)”. `NC(=O)c1ccc[n+]([C@@H]2O[C@H](COP(=O)(O)OP(=O)(O)OC[C@H]3O[C@@H](n4cnc5c(N)ncnc54)[C@H](O)[C@@H]3O)[C@@H](O)[C@H]2O)c1` [NAD^+]: the “ferredoxin:NAD oxidoreductase assay” value in experiment [2] is reported as “catalysed the ferredoxin-dependent reduction of NAD^+”. Turning to `Cc1cc2nc3c(=O)[nH]c(=O)nc-3n(C[C@H](O)[C@H](O)[C@H](O)COP(=O)(O)O)c2cc1C` [flavin mononucleotide], the “cryo-EM structure, 2.8-3.3 Å” value in [1] (covalent, linked to T156 of RnfD, 5 µM FMN in purification buffer) is “RnfD contains an FMN^D cofactor covalently linked to T156^RnfD”; in experiment [3], “covalently binds FMN^G via T185^RnfG in its antiparallel βαβ-fold”.

`NC(=O)C1=CN([C@@H]2O[C@H](COP(=O)(O)OP(=O)(O)OC[C@H]3O[C@@H](n4cnc5c(N)ncnc54)[C@H](O)[C@@H]3O)[C@@H](O)[C@H]2O)C=CC1` [NADH]: in experiment [4], the “cryo-EM structure, 3.3 Å” value is on record as “we observed a well-resolved density for a bound NADH molecule”. As to B1, the binding result in [5] and in experiment [6] was “binds” throughout. In the case of B2, in experiment [7], the binding result is given as “binds”. In the case of B3, the binding result in experiment [8] is given as “binds”. Still for that read-out and setting: the entry for B4 is “binds”. B5: the binding result in [7] and in experiment [9] was “binds” throughout.
